Measured values from patent US20240409645A1.

Assays:
[1] = biological target: T1, cynomolgus monkey IL-2Rβ/CD122 subunit (cynomolgus monkey) (UniProt Q38J85); experiment: ELISA, monovalent VHH-hFc
T1 sequence (looked up): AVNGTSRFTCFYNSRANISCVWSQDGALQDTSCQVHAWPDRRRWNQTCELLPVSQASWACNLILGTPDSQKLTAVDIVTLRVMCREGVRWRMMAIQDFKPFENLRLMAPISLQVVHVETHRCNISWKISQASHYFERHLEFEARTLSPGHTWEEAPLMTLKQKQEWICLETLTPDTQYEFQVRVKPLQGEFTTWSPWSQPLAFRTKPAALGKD

[2] = biological target: T2, human interleukin-2 receptor β-chain (IL-2Rβ; CD122), recombinant protein (human) (UniProt P14784); experiment: ELISA, monovalent VHH-hFc
T2 sequence: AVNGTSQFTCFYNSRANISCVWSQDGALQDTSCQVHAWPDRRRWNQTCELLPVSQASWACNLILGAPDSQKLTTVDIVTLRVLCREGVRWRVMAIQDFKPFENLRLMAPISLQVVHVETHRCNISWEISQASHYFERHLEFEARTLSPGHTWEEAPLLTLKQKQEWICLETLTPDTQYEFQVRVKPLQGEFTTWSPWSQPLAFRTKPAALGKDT

[3] = biological target: T1, cynomolgus monkey IL-2Rβ/CD122 subunit (cynomolgus monkey); experiment: ELISA, monovalent; EC50 cyno vs human subunit
mouse IL-2Rγ (mouse) = biological target: T3, mouse IL-2Rγ (mouse) (UniProt P34902); experiment: P.E. binding ELISA
T3 sequence (looked up): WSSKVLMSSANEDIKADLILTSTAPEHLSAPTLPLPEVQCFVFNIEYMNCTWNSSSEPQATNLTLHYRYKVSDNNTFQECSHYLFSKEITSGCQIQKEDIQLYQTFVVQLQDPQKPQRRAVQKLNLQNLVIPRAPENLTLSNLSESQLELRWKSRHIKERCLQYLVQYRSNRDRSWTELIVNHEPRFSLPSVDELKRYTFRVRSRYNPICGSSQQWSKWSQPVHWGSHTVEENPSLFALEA

[4] = biological target: cynomolgus monkey IL-2Rγ/CD132 subunit (cynomolgus monkey); experiment: ELISA, monovalent VHH-hFc
cynomolgus monkey IL-2Rγ/CD132 subunit (cynomolgus monkey), sequence (chain, as listed by the source): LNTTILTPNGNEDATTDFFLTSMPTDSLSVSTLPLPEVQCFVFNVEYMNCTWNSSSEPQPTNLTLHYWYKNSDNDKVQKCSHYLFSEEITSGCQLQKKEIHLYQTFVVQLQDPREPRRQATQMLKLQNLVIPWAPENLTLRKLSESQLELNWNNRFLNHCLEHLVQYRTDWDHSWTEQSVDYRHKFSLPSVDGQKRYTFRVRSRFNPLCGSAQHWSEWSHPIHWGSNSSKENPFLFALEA

[5] = biological target: T4, human common cytokine receptor γ-chain (γc; IL-2Rγ; CD132), recombinant protein (human) (UniProt P31785); experiment: ELISA, monovalent VHH-hFc
T4 sequence: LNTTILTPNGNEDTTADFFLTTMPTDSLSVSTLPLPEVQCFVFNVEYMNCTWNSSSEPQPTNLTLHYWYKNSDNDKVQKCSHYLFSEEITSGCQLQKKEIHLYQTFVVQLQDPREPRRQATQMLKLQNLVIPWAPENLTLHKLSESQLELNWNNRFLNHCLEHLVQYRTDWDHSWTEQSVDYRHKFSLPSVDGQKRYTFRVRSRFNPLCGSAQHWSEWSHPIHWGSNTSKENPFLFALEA

[6] = biological target: cynomolgus monkey IL-2Rγ/CD132 subunit (cynomolgus monkey); experiment: ELISA, monovalent; EC50 cyno vs human subunit
mouse IL-2Rα (mouse) = biological target: T5, mouse IL-2Rα (mouse) (UniProt P01590); experiment: P.E. binding ELISA
T5 sequence (looked up): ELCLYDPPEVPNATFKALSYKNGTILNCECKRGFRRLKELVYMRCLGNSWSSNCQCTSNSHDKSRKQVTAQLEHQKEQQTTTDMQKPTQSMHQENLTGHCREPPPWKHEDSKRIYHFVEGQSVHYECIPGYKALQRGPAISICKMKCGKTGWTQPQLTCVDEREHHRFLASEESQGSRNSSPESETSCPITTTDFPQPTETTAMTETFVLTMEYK

B1: 24-MP06E05 VHH-hFc, monospecific monovalent (Fc fusion, part only; not given: Both Fc arms and linker, not shown: another chain or arm of the molecule; a dimerising Fc or GST; large carriers; small tags and cut ends)
VHH: QVQLVESGGELVQGGASLRLSCAASGRTFSNANMAWFRQAPEKEREFVALITWSSGSTLYADSVKGRFTISRDNARKMVYLQMNSLKPEDTAVYYCAADGPPYSGTYYRYDTYDYWGQGTQVTVSS
EC50 [1]: 657 pM
EC50 [2]: 206 pM
Fold change [3]: 3.2 fold

B2: 19-MP03F08 VHH-hFc, monospecific monovalent (Fc fusion, part only; not given: Both Fc arms and linker, not shown: another chain or arm of the molecule; a dimerising Fc or GST; large carriers; small tags and cut ends)
VHH: EVQLVESGGGLVQTGGSLRLSCAASGGTFSRDAMAWFRQVPGKEREFVALISWSGATTNYADSVKGRFAISRDNGKNTVYLQMNRLKPADTAIYYCAADRRPMGSRSYFEPTEYDDWGQGTQVTVSS
EC50 [1]: 953 pM
EC50 [2]: 670 pM
Fold change [3]: 1.4 fold

B3: 27-MP04G01 VHH (periplasmic extract) (VHH)
VHH: QVQLVESGGGLVQAGGSLTLSCAAPGRTFGTDVVGWFRQAPGKEREFVASISRSGDGIYYDDSVKGRFTISRNNAWNTVNLQMNSLKVEDTAVYYCAAGDGWSTYDYWGQGTQVTVSS
OD450 nm (mouse IL-2Rγ (mouse)): 0.048 OD450 nm

B4: 27-MP04G01 VHH-hFc, monospecific monovalent (Fc fusion, part only; not given: Both Fc arms and linker, not shown: another chain or arm of the molecule; a dimerising Fc or GST; large carriers; small tags and cut ends)
VHH: QVQLVESGGGLVQAGGSLTLSCAAPGRTFGTDVVGWFRQAPGKEREFVASISRSGDGIYYDDSVKGRFTISRNNAWNTVNLQMNSLKVEDTAVYYCAAGDGWSTYDYWGQGTQVTVSS
EC50 [4]: 153 pM
EC50 [5]: 155 pM
Fold change [6]: 1 fold

B5: 2-MP01A02 VHH (periplasmic extract) (VHH)
VHH: QVQLVESGGGLVQPGGSLRLSCATSGFTFRNNFMSWVRQAPGKGLEWVSTISYGGESTTYAESVKGRFTISRDNAKNTLYLQMNNLKPEDTAVYYCAKATSYDSIRSGSRGQGTQVTVSS
OD450 nm (mouse IL-2Rα (mouse)): 0.046 OD450 nm

B6: 8-MP01C12 VHH (periplasmic extract) (VHH)
VHH: QVQLVESGGGLVQPGGSLRLSCATSGFTFSNNFMSWVRQAPGKGLEFVSTISYGGESTTYAEAVKGRFTISRDNAKNTLYLQMNNLKPEDTAIYYCAKATSYTSIRGAPRGQGTQVTVSS
OD450 nm (mouse IL-2Rα (mouse)): 0.045 OD450 nm

B7: 3-MP01E03 VHH (periplasmic extract) (VHH)
VHH: QVQLVESGGGLVQAGGSLRLSCTASGRTLSSYSMAWFRQAADKGREFVTAISSSGVVTHVLDSVKGRFTISRDNAKNTVYLQMNSLQPEDTALYFCAGTASSYSTYEANYNYWGQGTLVTVSS
OD450 nm (mouse IL-2Rα (mouse)): 0.046 OD450 nm

B8: 38-MP07A11 VHH-hFc, monospecific monovalent (Fc fusion, part only; not given: Both Fc arms and linker, not shown: another chain or arm of the molecule; a dimerising Fc or GST; small tags and cut ends)
VHH: QVQLVESGGGLVQAGGSLRLSCAASGRSLSRDAMGWFRQAPGKEREFVAVMSWGGDTFYTDSVEGRFTFSRDNAKNAVYLEMNDLQPEDTAVYYCAAAPTSFATTAYSSSNSYSYWGRGTQVTVSS
EC50 [4]: 160 pM
EC50 [5]: 107 pM
Fold change [6]: 1.5 fold

B9: 1-MP01H01 VHH (periplasmic extract) (VHH)
VHH: EVQLVESGGGLVQAGGSLRLSCAASGRTFRTHNMGWFRRAPGKEREFVAAISWNVDNTLYADSVKGRFTISRDNGRNMVYLQMNSLKPEDTAVYYCAADNIPLSSDVAATATEYDYWGQGTQVTVSS
OD450 nm (mouse IL-2Rα (mouse)): 0.048 OD450 nm

B10: 32-MP04A08 VHH (periplasmic extract) (VHH)
VHH: QVQLVESGGGLVQAGGSLRLSCAASGRTFGSTAVGWFRQVPGKEREFVSAINRSGSATTYADSVKGRFTISRDNAKNTVYLQMNSLTPEDTGVYYCAADSLPYGRPYYFQRSAGEYDYWGQGTQVTVSS
OD450 nm (mouse IL-2Rγ (mouse)): 0.05 OD450 nm

B11: 5-MP01F05 VHH (periplasmic extract) (VHH)
VHH: EVQLVESGGGLVQAGGSLRLSCAASIRAFTTWSMAWFRQAPGKEREYVARINVSGSVTYYADFVKGRFTISRDNAKKTMYLEMNNLKPEDTALYYCAADRTGVGTNDYNYWGQGTQVTVSS
OD450 nm (mouse IL-2Rα (mouse)): 0.046 OD450 nm

B12: 34-MP04A12 VHH-hFc, monospecific monovalent (Fc fusion, part only; not given: Both Fc arms and linker, not shown: another chain or arm of the molecule; a dimerising Fc or GST; large carriers; small tags and cut ends)
VHH: QVQLVESGGGLVQAGSSLRLSCAASGRTLSRLAMGWFRQAPGKEREFVAVNSWGGDTFYADSVEGRFTYSRDNAKSAVYLQMNSLQPEDTAVYYCAAAPTSFATTAYSSSNSYAYWGQGAQVTVSS
EC50 [4]: 158 pM
EC50 [5]: 132 pM
Fold change [6]: 1.2 fold
